Data taken from patent publication US20240200091A1, “USE OF PROTOPORPHYRINOGEN OXIDASE” (BEIJING DABEINONG BIOTECHNOLOGY CO., LTD., priority 2021, published 2024).

Experiments:
Type in all cases: in vivo
[1] = test system: Arabidopsis thaliana T1 plants; experiment: sulfentrazone tolerance of transgenic Arabidopsis thaliana T1 plants (spray, grade of pesticide damage); conditions: 7 DAT, number of plants of 24 per genotype, grades
In short: (§1)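 Read-out: injury grade at 7 DAT from injured vs total leaf area (0 = as water-sprayed; 1 = <10%; 3 = 100%); grades 0–1 were rated highly resistant. Plants were 18-day-old glufosinate-selected PPO-transgenic T1 lines plus controls, n = 24 per genotype. Doses: saflufenacil 25/100, sulfentrazone 450/900, flumioxazin 60/240, oxyfluorfen 180/720 g ai/ha.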

[2] = test system: transgenic soybean plants; experiment: flumioxazin tolerance of transgenic soybean plants (spray, grade of pesticide damage); conditions: for The grade of pesticide damage/plant: grade 0 / The grade of pesticide damage/plant: grade 1 / The grade of pesticide damage/plant: grade 2 / The grade of pesticide damage/plant: grade 3: 7 DAT, number of plants of 16 per genotype, grades
[3] = test system: Arabidopsis thaliana T1 plants; experiment: oxyfluorfen tolerance of transgenic Arabidopsis thaliana T1 plants (spray, grade of pesticide damage); conditions: 7 DAT, number of plants of 24 per genotype, grades
In short: as §1

[4] = test system: transgenic soybean plants; experiment: oxyfluorfen tolerance of transgenic soybean plants (spray, grade of pesticide damage); conditions: for The grade of pesticide damage/plant: grade 0 / The grade of pesticide damage/plant: grade 1 / The grade of pesticide damage/plant: grade 2 / The grade of pesticide damage/plant: grade 3: 7 DAT, number of plants of 16 per genotype, grades; for tolerance to oxyfluorfen: soybean
[5] = test system: transgenic soybean plants; experiment: saflufenacil tolerance of transgenic soybean plants (spray, grade of pesticide damage); set-up: key to damage levels rated at grade: grade 0 means that the growth status of plants is essentially consistent with those sprayed with the blank solvent (water); grade 1 means that the average of the damage levels of plants is less than 10%; grade 2 means that the average of the damage levels of plants is greater than 100%; grade 3 means that the average of the damage levels of plants is 100%; conditions: for The grade of pesticide damage/plant: grade 0 / The grade of pesticide damage/plant: grade 1 / The grade of pesticide damage/plant: grade 2 / The grade of pesticide damage/plant: grade 3: 7 DAT, number of plants of 16 per genotype, grades
[6] = test system: Arabidopsis thaliana T1 plants; experiment: flumioxazin tolerance of transgenic Arabidopsis thaliana T1 plants (spray, grade of pesticide damage); conditions: 7 DAT, number of plants of 24 per genotype, grades
In short: as §1

[7] = test system: Arabidopsis thaliana T1 plants; experiment: saflufenacil tolerance of transgenic Arabidopsis thaliana T1 plants (spray, grade of pesticide damage); conditions: 7 DAT, number of plants of 24 per genotype, grades
In short: as §1

B1: PPO1A: nucleotide sequence encoding microbial protoporphyrinogen oxidase PPO1 (SEQ ID NO:1), Arabidopsis thaliana/soybean common codon usage bias (nucleic acid)
DNA: ATGAAGGCTTTGGTACTCTACAGCACAAGAGACGGTCAGACACACGCGATCGCGTCGTACATTGCTAATTGCATGAAAGAGAAGTATGAGTGTGACGTTATTGATCTTCTTCATGCTCAGCATGTTACATTATCACGGTATGATAAGGTTCTTGTAGGAGCTTCTATACGATATGGACATTTCAATGCTGTGTTGGACAAATTTGTGAAGCAAAACATCCAACAACTAAACTCAATGCCTTCTGCTTTCTTTGCTGTTAATTTGACTGCCAGGAAACCTGAGAAACGTACTCCTCAGACCAATTCTTATGTTAGGAAGTTTCTTCTGGGGACACCATGGAAACCAGCAATGTGTGGCGTGTTTGCAGGAGCATTGAGGTATCCACGTTACAGATGGGTTGATAAAGTGATGATTCAGCTCATAATGAGAATGACTGGTGGTGAAACAGATACAAGCAAAGAAGTTGAGTATACTGATTGGGAACAAGTCAAAAAGTTCGCAGAAGATTTTGGAAAGCTAAGTTACAAGAAAACCCTCTGA
modifications: PPO1A Nucleotide Sequence
What does the source list for B1?
The grade of pesticide: grade 0 ([1]; sulfentrazone 450 g ai/ha (1×)): 24; The grade of pesticide: grade 1 ([1]; sulfentrazone 450 g ai/ha (1×)): 0; The grade of pesticide: grade 2 ([1]; sulfentrazone 450 g ai/ha (1×)): 0; The grade of pesticide: grade 3 ([1]; sulfentrazone 450 g ai/ha (1×)): 0; The grade of pesticide: grade 0 ([1]; sulfentrazone 900 g ai/ha (2×)): 20; The grade of pesticide: grade 1 ([1]; sulfentrazone 900 g ai/ha (2×)): 4; The grade of pesticide: grade 2 ([1]; sulfentrazone 900 g ai/ha (2×)): 0; The grade of pesticide: grade 3 ([1]; sulfentrazone 900 g ai/ha (2×)): 0; The grade of pesticide damage/plant: grade 0 ([2]; flumioxazin 120 g ai/ha (2×)): 16 plant; The grade of pesticide damage/plant: grade 1 ([2]; flumioxazin 120 g ai/ha (2×)): 0 plant; The grade of pesticide damage/plant: grade 2 ([2]; flumioxazin 120 g ai/ha (2×)): 0 plant; The grade of pesticide damage/plant: grade 3 ([2]; flumioxazin 120 g ai/ha (2×)): 0 plant; The grade of pesticide damage/plant: grade 0 ([2]; flumioxazin 240 g ai/ha (4×)): 16 plant; The grade of pesticide damage/plant: grade 1 ([2]; flumioxazin 240 g ai/ha (4×)): 0 plant; The grade of pesticide damage/plant: grade 2 ([2]; flumioxazin 240 g ai/ha (4×)): 0 plant; The grade of pesticide damage/plant: grade 3 ([2]; flumioxazin 240 g ai/ha (4×)): 0 plant; tolerance to flumioxazin ([2]; soybean, flumioxazin at different concentrations (120 and 240 g ai/ha)): high-resistant tolerance; The grade of pesticide damage/plant: grade 0 ([3]; oxyfluorfen 180 g ai/ha (1×)): 24 plant; The grade of pesticide damage/plant: grade 1 ([3]; oxyfluorfen 180 g ai/ha (1×)): 0 plant; The grade of pesticide damage/plant: grade 2 ([3]; oxyfluorfen 180 g ai/ha (1×)): 0 plant; The grade of pesticide damage/plant: grade 3 ([3]; oxyfluorfen 180 g ai/ha (1×)): 0 plant; The grade of pesticide damage/plant: grade 0 ([3]; oxyfluorfen 720 g ai/ha (4×)): 19 plant; The grade of pesticide damage/plant: grade 1 ([3]; oxyfluorfen 720 g ai/ha (4×)): 5 plant; The grade of pesticide damage/plant: grade 2 ([3]; oxyfluorfen 720 g ai/ha (4×)): 0 plant; The grade of pesticide damage/plant: grade 3 ([3]; oxyfluorfen 720 g ai/ha (4×)): 0 plant; The grade of pesticide damage/plant: grade 0 ([4]; oxyfluorfen 360 g ai/ha (2×)): 16 plant; The grade of pesticide damage/plant: grade 1 ([4]; oxyfluorfen 360 g ai/ha (2×)): 0 plant; The grade of pesticide damage/plant: grade 2 ([4]; oxyfluorfen 360 g ai/ha (2×)): 0 plant; The grade of pesticide damage/plant: grade 3 ([4]; oxyfluorfen 360 g ai/ha (2×)): 0 plant; The grade of pesticide damage/plant: grade 0 ([4]; oxyfluorfen 720 g ai/ha (4×)): 16 plant; The grade of pesticide damage/plant: grade 1 ([4]; oxyfluorfen 720 g ai/ha (4×)): 0 plant; The grade of pesticide damage/plant: grade 2 ([4]; oxyfluorfen 720 g ai/ha (4×)): 0 plant; The grade of pesticide damage/plant: grade 3 ([4]; oxyfluorfen 720 g ai/ha (4×)): 0 plant; tolerance to oxyfluorfen ([4]; oxyfluorfen at four-fold field concentration (720 g ai/ha)): high-resistant tolerance; tolerance to oxyfluorfen ([4]; oxyfluorfen at two-fold field concentration (360 g ai/ha)): high-resistant tolerance; The grade of pesticide damage/plant: grade 0 ([5]; saflufenacil 50 g ai/ha (2×)): 16 plant; The grade of pesticide damage/plant: grade 1 ([5]; saflufenacil 50 g ai/ha (2×)): 0 plant; The grade of pesticide damage/plant: grade 2 ([5]; saflufenacil 50 g ai/ha (2×)): 0 plant; The grade of pesticide damage/plant: grade 3 ([5]; saflufenacil 50 g ai/ha (2×)): 0 plant; The grade of pesticide damage/plant: grade 0 ([5]; saflufenacil 100 g ai/ha (4×)): 16 plant; The grade of pesticide damage/plant: grade 1 ([5]; saflufenacil 100 g ai/ha (4×)): 0 plant; The grade of pesticide damage/plant: grade 2 ([5]; saflufenacil 100 g ai/ha (4×)): 0 plant; The grade of pesticide damage/plant: grade 3 ([5]; saflufenacil 100 g ai/ha (4×)): 0 plant; tolerance to saflufenacil ([5]; soybean, saflufenacil at four-fold field concentration (100 g ai/ha)): high-resistant tolerance; damage levels rated at grade ([5]; soybean, saflufenacil at two-fold field concentration (50 g ai/ha)): 0; tolerance to saflufenacil ([5]; soybean, saflufenacil, compared with the control vector and CK): different extents of tolerance; The grade of pesticide damage/plant: grade 0 ([6]; flumioxazin 60 g ai/ha (1×)): 24 plant; The grade of pesticide damage/plant: grade 1 ([6]; flumioxazin 60 g ai/ha (1×)): 0 plant; The grade of pesticide damage/plant: grade 2 ([6]; flumioxazin 60 g ai/ha (1×)): 0 plant; The grade of pesticide damage/plant: grade 3 ([6]; flumioxazin 60 g ai/ha (1×)): 0 plant; The grade of pesticide damage/plant: grade 0 ([6]; flumioxazin 240 g ai/ha (4×)): 23 plant; The grade of pesticide damage/plant: grade 1 ([6]; flumioxazin 240 g ai/ha (4×)): 1 plant; The grade of pesticide damage/plant: grade 2 ([6]; flumioxazin 240 g ai/ha (4×)): 0 plant; The grade of pesticide damage/plant: grade 3 ([6]; flumioxazin 240 g ai/ha (4×)): 0 plant; The grade of pesticide damage/plant: grade 0 ([7]; saflufenacil 25 g ai/ha (1×)): 24 plant; The grade of pesticide damage/plant: grade 1 ([7]; saflufenacil 25 g ai/ha (1×)): 0 plant; The grade of pesticide damage/plant: grade 2 ([7]; saflufenacil 25 g ai/ha (1×)): 0 plant; The grade of pesticide damage/plant: grade 3 ([7]; saflufenacil 25 g ai/ha (1×)): 0 plant; The grade of pesticide damage/plant: grade 0 ([7]; saflufenacil 100 g ai/ha (4×)): 4 plant; The grade of pesticide damage/plant: grade 1 ([7]; saflufenacil 100 g ai/ha (4×)): 20 plant; The grade of pesticide damage/plant: grade 2 ([7]; saflufenacil 100 g ai/ha (4×)): 0 plant; The grade of pesticide damage/plant: grade 3 ([7]; saflufenacil 100 g ai/ha (4×)): 0 plant
